Measured values from patent publication US20070184022A1.

Molecular target: T1, H2-Kb molecules in the microsomes of RAW309Cr.1 cells (murine)
T1 chain 1: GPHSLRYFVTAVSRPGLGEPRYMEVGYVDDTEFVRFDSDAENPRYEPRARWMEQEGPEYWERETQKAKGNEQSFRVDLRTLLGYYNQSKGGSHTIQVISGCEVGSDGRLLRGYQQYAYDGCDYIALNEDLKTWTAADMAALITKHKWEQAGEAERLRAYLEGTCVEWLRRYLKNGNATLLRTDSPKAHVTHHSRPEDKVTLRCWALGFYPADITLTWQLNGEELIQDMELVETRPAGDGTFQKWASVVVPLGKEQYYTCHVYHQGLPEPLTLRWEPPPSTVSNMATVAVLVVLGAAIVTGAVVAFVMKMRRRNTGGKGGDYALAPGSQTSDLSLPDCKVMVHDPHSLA
T1 chain 2: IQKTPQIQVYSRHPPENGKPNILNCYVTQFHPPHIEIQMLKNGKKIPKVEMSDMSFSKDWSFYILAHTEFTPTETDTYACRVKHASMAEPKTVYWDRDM
Experiment: competition against 125I-labelled modified OVA peptide (competitor at the concentration of the report peptide), photo-crosslinking to Kb in microsomes
Conditions: remark: other sources report otherwise

## SIINFEKL [native OVA peptide (residues 257-264, SIINFEKL)]
  percent of the report peptide competed: 50%
